Data from US20240218054A1 (MABLOC, published 2024).

B1: ADI-45085 (antibody, V domains shown)
VH: EVQLVESGGGLVQPGGSLRLSCAASGFTFSSYAMSWVRQAPGKGLEWVSTFSGRGGSTYYADFVKGRFTISRDNSKNTLYLQMNSLRAEDTAVYYCAKYYDSSGYYYFDYWGQGTLVTVSS
VL: DIQLTQSPSTLSASVGDRVTITCRASQSISTWLAWYQQKPGKAPKLLIYRASSLESGVPSRFSASGSGTEFTLSISSLQPDDFATYYCKQYNRNPYTFGQGTKVEIK
notes: full-length IgG; also called Antibody Number 57
B2: ADI-49133 (antibody, V domains shown)
VH: EVQLLESGGGLVQPGGSLRLSCAASGFTFRNYAMNWVRQTPGKGLEWVSGISGGGDSTNYADSVKGRFTISRDNSRNTLYLQLNSLRAEDTAVYYCAKDLAVSTPRYWFDSWGQGTLVTVSS
VL: DIQMTQSPSSLSASVGDRVTITCRASQTISVDLNWYQHKPGKAPKLLIFAASTLQSGVPSRFSGSGSGTDFTLTIRSLQPEDFATYYCQQSYSIPRITFGQGTRLEIK
notes: full-length IgG; also called Antibody Number 6
B3: ADI-45154 (antibody, V domains shown)
VH: EVQLVESGGGVVQPGRSLRLSCAASGFTFSNYGMHWVRQAPGKGLEWVAVISYDGSNKYYADSVKGRFTISRDDSKNTLYLQVNSLRAEDTAVYYCAKDICSGDCGGGDYWGQGTLVTVSS
VL: QSVLIQPPSASGSPGQSVTISCTGTSSDVGGYNYVSWYQQHPGKAPKLMIYEVSKRPSGVPDRFSGSKSGNTASLTVSGLQAEDGADYYCSSYAGSNNWVVFGGGTKLTVL
notes: full-length IgG; also called Antibody Number 53
B4: ADI-48913 (antibody, V domains shown)
VH: EVQLLESGPGLVKPSETLSLTCTVSGGSISSYYWSWIRQPAGKGLELIGRIYTSGSGNYNPSLKRRVTMSVDTSKNQISLRLNSVTAADTAVYYCARERGGYFTEPFDIWGQGTMVTVSS
VL: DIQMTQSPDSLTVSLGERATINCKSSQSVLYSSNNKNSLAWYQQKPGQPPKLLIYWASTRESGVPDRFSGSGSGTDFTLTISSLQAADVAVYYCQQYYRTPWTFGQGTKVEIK
notes: full-length IgG; also called Antibody Number 60
B5: ADI-42154 (antibody, V domains shown)
VH: EVQLVQSGGGLVQPGGSLRLSCAASGFTFSTYWMSWVRQAPGKGLEWVANIKQDGSEKYYVDSVKGRFTISRDNAKNSLYLQMNSLRAEDTAVYYCARDISCISTSCYGGYYYYGMDVWGQGTTVTVSS
VL: not shown
notes: full-length IgG; also called Antibody Number 55
B6: ADI-48916 (antibody, V domains shown)
VH: EVQLVESGGGVVQPGRSLRLSCAASGFTFSNSGMHWVRQAPGKGLEWVAVIWYDSRNQNYADSVKGRFTISRDNSKNTLFLQMNSLRAEDTAVYYCARDYYASGDGSIDYWGQGTLVTVSS
VL: DIQVTQSPSSLSASVGGRVTITCRASQGIRNDLGWYQRKPGKAPKRLIYAASSLQSGVPSRFSGSGSGTEFTLTISSLQPEDFATYYCLQHNSYPLTFGGGTKVDIK
notes: full-length IgG; also called Antibody Number 56
B7: ADI-48908 (antibody, V domains shown)
VH: EVQLLESGGGLVQPGRSLRLSCAVSGFTFAEYAMHWVRQAPGKGLEWVSSISWNSGRIGYVDSVRGRFTISRDNAKNSLYLQMNSLRVEDTAFYYCAKGYDSSGYYWADYWGQGTLVTVSS
VL: EIVMTQSPATLSVSPGERATLSCRASQSVSFNLAWYQQKPGQAPRLLISRASTRAAGVPARFSGSGSGTEFTLTISSLQSEDFAVYYCQQYNNWPPLTFGGGTKLEIK
notes: full-length IgG; also called Antibody Number 59
B8: ADI-42211 (antibody, V domains shown)
VH: QVQLVESGGGVVQPGRSLRLSCGGSGFTFSSYGMHWVRQAPGKGLEWVAVISYDGSKKYSADSVKGRFTISRDNSKNTLYLQMNSLRAEDTAVYYCAKGSVSVAGAEDYWGQGTLVTVSS
VL: DIQMTQSPSSLSASVGDRVTITCRASQGISSYLAWFQQKPGKVPKLLIYAASTLQSGVPSRFSGSGSGTDFTLTISSLQPEDVATYYCQKYNSAPQTFGQGTKVDIK
notes: full-length IgG; also called Antibody Number 58
B9: ADI-49161 (antibody, V domains shown)
VH: QVQLVQSGAEVKKPGASVKVSCKASGYTFNTYAMTWVRQAPGQGLEWMGWISTYNGNTVFGQKFQGRVTLSTDTSTSTAYMELRSLTSDDTAVYYCAREDDDYYSMDVWGQGTTVTVSS
VL: QPVLTQPASVSGSPGQSITISCTGTSTDVGGYNYVSWYQQYPGKAPKLIIYDVTNRPSGVSHRFSGSKSGNTASLTISGLQAEDEADYYCSSYTTTSLVIFGGGTKLTVL
notes: full-length IgG; also called Antibody Number 54

target: T1, recombinant YFV E protein (soluble E, sE; YFV Asibi strain) (Yellow fever virus, Asibi strain, UniProt Q6DV88 286-678); assay: BLI monovalent (IgG on tip)
T1 construct: also called YFV E antigen; YFV E monomer
T1 sequence (Q6DV88 286-678): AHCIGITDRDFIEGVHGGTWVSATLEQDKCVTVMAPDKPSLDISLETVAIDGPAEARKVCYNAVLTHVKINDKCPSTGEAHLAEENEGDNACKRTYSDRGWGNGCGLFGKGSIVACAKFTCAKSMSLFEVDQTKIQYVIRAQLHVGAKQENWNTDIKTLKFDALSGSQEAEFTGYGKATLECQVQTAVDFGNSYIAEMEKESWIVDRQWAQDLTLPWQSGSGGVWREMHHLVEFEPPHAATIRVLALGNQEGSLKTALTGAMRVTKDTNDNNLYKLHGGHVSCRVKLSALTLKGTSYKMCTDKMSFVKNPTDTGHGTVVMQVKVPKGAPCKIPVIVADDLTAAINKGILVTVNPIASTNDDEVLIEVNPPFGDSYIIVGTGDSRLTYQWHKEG

| Binder | Kd [nM] |
| --- | --- |
| B1 | 152 |
| B2 | 6.91 |
| B3 | > 100 |
| B4 | 186 |
| B5 | 164 |
| B6 | 393 |
| B7 | 1.76 |
| B8 | 1.64 |
| B9 | 1.81 |
